According to patent publication US20260231954A1, “PESTICIDAL ENZYMES FOR USE ON NEMATODES, INSECTS, AND MOLLUSKS” (priority 2023, published 2026):

B1: Chitinase 19F (SEQ ID NO: 182): Streptomyces coelicolor Chitinase F (Chi19F) (protein)
chain: ASCSSYHAWSADANYNTGDIVRYTDGKAYIAEHANPGYDPLISTWYWDPYACDGGSQTPVGNFVVSEAQFNQMFPGRNSFYTYSGLTAALSAYPGFANTGSDTTKKQEAAAFLANVSHETGGLVYIVEQNTANYPHYCDWNQPYGCPAGQAAYYGRGPIQLSWNFNYKAAGDALGIDLLGNPWLVQNDAAVAWKTGLWYWNTQSGPGTMTPHNAMVNGAGFGQTIRSINGSLECDGKNPAQVQSRVTKYQQFAQILGVSPGGNLYC
modifications: Chitinase F (Chi19F); Streptomyces coelicolor
B2: Esterase B (SEQ ID NO: 89): Bacillus subtilis Esterase (EstB without signal sequence) (protein, listed as Bacillus subtilis)
chain: ESVHNPVVLVHGISGASYNFFAIKNYLISQGWQSNKLYAIDFYDKTGNNLNNGPQLASYVDRVLKETGAKKVDIVAHSMGGANTLYYIKYLGGGNKIQNVVTLGGANGLVSSTALPGTDPNQKILYTSIYSLNDQIVINSLSRLQGARNIQLYGIGHIGLLSNSQVNGYIKEGLNGGGLNTN
modifications: Esterase (EstB H191 without signal sequence)

Tests used:
SCN nematodes = test: Nematode death after foliar spray application on strawberry leaf segments; format: in vivo, Heterodera glycines; conditions: 0.6% solution of fermentation broth sprayed on strawberry leaf segments; 20 wells; water only 5%
Protocol: To determine whether a nematicidal enzyme can cause nematode death when sprayed as a foliar treatment, a trial was performed using chitinase 19F (SEQ ID NO: 182). The free enzyme was produced as described in Example 2. A SCN hatchery was set up as described in Example 2, except that no bleach sterilization step was performed. Six days later, the concentration of hatched nematodes was determined. Leaves from Quinault strawberry plants (Fragaria x ananassa) were cut into square sections and placed in the wells of a 24-well plate with the abaxial side up. […] Spray solutions were created with water alone and water plus fermentation broth with chitinase 19F (SEQ ID NO: 182). For the base strain control and chitinase solutions, 0.094 mL of fermentation broth was added to 15 mL of water (0.6% solution) to model a field spray application of 8 fl oz. per acre. Treatments were added to a small spray bottle and each leaf segment was sprayed approximately 3 times. After the leaves had dried, approximately 100 nematodes were added to each leaf segment. To assess the number of nematodes that were alive at the start of the experiment hours, 500 μL of sterile water was added to 4 wells of each treatment, and the leaf segment was washed and removed. The number of alive and dead nematodes were counted for each well, and the average percentage of dead nematodes were calculated for each treatment. […]

[1] = system: Btk resistant Diamondback moth; test: Diet-surface overlay (DSO) bioassay on Btk resistant Diamondback moth; format: in vivo, Plutella xylostella; conditions: number of individuals, n = 32, 7 days
Protocol: Diet-surface overlay bioassays are conducted with artificial diet mixes without antibiotics in 1.5 cm^2 cell bioassay trays(s). Artificial diets are commercially available from Southland Products Inc. Diets were prepared by dispersing 0.5 mL of molten diet to each 1.5 cm^2 cell. After solidification, 0.1 mL enzyme treatments were dispersed on top of diet in each cell and the tray was gently rocked in an orbital shaker to spread the liquid uniformly over the diet surface. Trays were placed under clean airflow until the surface of each cell was uniformly dried. One or two 16-cell sections were used per treatment (the number in larvae treated was 16 or 32).
One healthy first instar larva was placed into each treatment cell, each 16-cell section was covered with a re-sealable lid and incubated at 27° C. and light-dark period of 16:8 hrs. After 7 days, and according to the species, the number of individuals in the following developmental categories was recorded.
Diamondback moth (Plutella xylostella): Dead Larva (lack of movement), Larva Stage I (≤50% relative size), Larva Stage II (100% relative size, full size), Early Pupa (light green color), Late Pupa (light-dark brown color), and Adult.
Negative/untreated controls were treated with filtered water and positive controls were treated with lethal doses of Bacillus thuringiensis subsp. Kurstaki (Btk) spores at 1000 ppm.
However, both neutral proteases reduced the number of individuals reaching adult stage.
The effect of lipase (10× enzyme rate) and free lipases were tested on a Diamondback Moth Btk resistant strain. Free Lipases from Burkholderia cepacia (Bc) and Pseudomonas fluorescens (Pf) were tested along with Lipase (SEQ ID NO: 76) and the results are shown below in Table 45.

Steinernema feltiae = test: In-vitro plate assay of Steinernema feltiae juvenile death after direct treatment; format: in vivo; conditions: Table 23, 40 μL per well (ILEVO 20 μL), water control 3%
Protocol: To determine the effects of enzymes on an additional soil-dwelling nematode species (Steinernema feltiae), a NemAttack™ package containing approximately 5 million S. feltiae juveniles was purchased from ARBICO Organics. The nematodes arrived already hatched and dispersed within a powder. To prepare the nematodes for use, an aliquot of the dry nematode mixture was rehydrated in water. The liquid nematode mixture was adjusted to a concentration of 20-30 nematode juveniles per 10 μL. The free enzymes Esterase B (SEQ ID NO: 89) and Chitinase 19F (SEQ ID NO: 182) were produced as described in Example 2.
Potato dextrose agar media containing chloramphenicol and chlortetracycline was prepared and added to sterile twenty-four-well cell culture plates (1 mL per well). The plates were divided according to the pre-determined N-value for each treatment (N=12-24). […]
To quantify the treatments' effects on nematode viability, the nematodes were examined under a dissecting microscope at 20× magnification. Initial (T0) values for the number of live juveniles, number of dead juveniles and total number of juveniles were recorded immediately after preparation of each well. […] Approximately 20-22 hours post addition of juveniles, the plates were evaluated, and the number of live juveniles, dead juveniles and total number of juveniles were recorded. […]

Molecule | Average percentage of dead nematodes at 24 hours (SCN nematodes) | Dead Larva ([1]; Table 47, chitinases, rate in mU/mL diet column) | Adult ([1]; Table 47) | Early Pupa ([1]; Table 47) | Larva Stage I ([1]; Table 47) | Larva Stage II ([1]; Table 47) | Late Pupa ([1]; Table 47) | Difference in Percent Death of Nematodes for 0 to 20 Hours (Steinernema feltiae) | Difference in Percent Death of Nematodes for 0 to 20 Hours (Steinernema feltiae; listed as Esterase B(SEQ ID NO: 89)) [%]
B1 | increased significantly above the control treatments | 2 | 1 | 4 | 2 | 1 | 22 |  | 
B2 |  |  |  |  |  |  |  | significantly increased the difference in percentage of S. feltiae juveniles that died | 33
